According to PMC12901202:

Key:
Test in all cases: BLI; […]; 300 s association, 300 s dissociation; 10x kinetics buffer; […]; global fit, 1:1 model; […]
[1] = target: SARS-CoV-2 BA.2.12.1 RBD, biotinylated (SARS-CoV-2) (UniProt P0DTC2)
[2] = target: SARS-CoV-2 Delta RBD, biotinylated (SARS-CoV-2) (UniProt P0DTC2)
[3] = target: SARS-CoV-2 BA.2.75.2 RBD, biotinylated (SARS-CoV-2) (UniProt P0DTC2)
[4] = target: SARS-CoV-2 XBB.1.5 RBD, biotinylated (SARS-CoV-2) (UniProt P0DTC2)
[5] = target: SARS-CoV-2 BA.5 RBD, biotinylated (SARS-CoV-2) (UniProt P0DTC2)
[6] = target: SARS-CoV-2 BQ.1.1 RBD, biotinylated (SARS-CoV-2) (UniProt P0DTC2)
[7] = target: SARS-CoV-2 Wuhan-Hu-1 RBD, biotinylated (SARS-CoV-2) (UniProt P0DTC2)
[8] = target: SARS-CoV-2 BA.2.86 RBD, biotinylated (SARS-CoV-2) (UniProt P0DTC2)

## TRI2-2 homotrimeric miniprotein inhibitor (designed binder)
[1]
  Kd: 0.851 nM
  koff: 0.000117 s⁻¹
  kon: 137000 M⁻¹ s⁻¹
[2]
  Kd: 0.00114 nM
  koff: 2.95e-07 s⁻¹
  kon: 259000 M⁻¹ s⁻¹
[3]
  Kd: 0.542 nM
  koff: 8.93e-05 s⁻¹
  kon: 165000 M⁻¹ s⁻¹
[4]
  Kd: 0.658 nM
  koff: 0.000105 s⁻¹
  kon: 160000 M⁻¹ s⁻¹
[5]
  Kd: 0.0306 nM
  koff: 9.92e-06 s⁻¹
  kon: 325000 M⁻¹ s⁻¹
[6]
  Kd: 0.21 nM
  koff: 3.36e-05 s⁻¹
  kon: 160000 M⁻¹ s⁻¹
[7]
  Kd: 0.00121 nM
  koff: 3.46e-07 s⁻¹
  kon: 286000 M⁻¹ s⁻¹
[8]
  Kd: 0.388 nM
  koff: 0.000131 s⁻¹
  kon: 339000 M⁻¹ s⁻¹
